Reference: article PMC5686162, “Non-canonical activation of OmpR drives acid and osmotic stress responses in single bacterial cells” (Nature Communications, 2017)

What was measured:
[1] = biological target: EnvZc C277Y (S. Typhimurium) (UniProt P08982); experiment: SEC; gel filtration profiles of EnvZc, EnvZc C277Y, OmpR, (OmpR + EnvZc) and (OmpR + EnvZc C277Y); Superose 12 10/300 GL for EnvZc, AKTA FPLC, 0.5 ml/min, 'suitable buffers'; fractions analysed by SDS-PAGE
[2] = biological target: OmpR (UniProt P0AA16); experiment: SEC; oligomeric state of OmpR alone under acidic conditions; Hiload 16/60 Superdex 75 pg for OmpR; OmpR buffer exchanged into 20 mM Tris, 200 mM NaCl
[3] = biological target: T1, EnvZc ( (S. Typhimurium or E. coli …, UniProt P08982 1-450)); experiment: SEC; gel filtration profiles of EnvZc, EnvZc C277Y, OmpR, (OmpR + EnvZc) and (OmpR + EnvZc C277Y); Superose 12 10/300 GL for EnvZc, AKTA FPLC, 0.5 ml/min, 'suitable buffers'; fractions analysed by SDS-PAGE; conditions: both partners purified
T1 construct: EnvZ sensor histidine kinase, cytoplasmic domain (EnvZc); also called wild-type EnvZc; cytoplasmic domain of EnvZ
T1 sequence: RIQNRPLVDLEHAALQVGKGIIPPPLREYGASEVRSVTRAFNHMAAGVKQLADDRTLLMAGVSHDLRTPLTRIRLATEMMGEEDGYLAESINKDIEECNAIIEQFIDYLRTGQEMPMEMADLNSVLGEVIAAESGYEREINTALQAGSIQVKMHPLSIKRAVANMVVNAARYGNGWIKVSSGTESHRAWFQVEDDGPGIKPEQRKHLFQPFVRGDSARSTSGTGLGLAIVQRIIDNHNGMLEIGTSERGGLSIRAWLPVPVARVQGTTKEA

EnvZc C277Y (from UniProt P08982 1-450) (domain or fragment)
stoichiometry N [1]: 2

OmpR (from UniProt P0AA16 1-239) (natural protein)
stoichiometry N [2]: 2

B1: OmpR (natural protein)
chain: MQENYKILVVDDDMRLRALLERYLTEQGFQVRSVANAEQMDRLLTRESFHLMVLDLMLPGEDGLSICRRLRSQSNPMPIIMVTAKGEEVDRIVGLEIGADDYIPKPFNPRELLARIRAVLRRQANELPGAPSQEEAVIAFGKFKLNLGTREMFREDEPMPLTSGEFAVLKALVSHPREPLSRDKLMNLARGREYSAMERSIDVQISRLRRMVEEDPAHPRYIQTVWGLGYVFVPDGSKA
notes: OmpR, response regulator of the EnvZ-OmpR two-component system; The unphosphorylated protein was used in gel filtration; also called His-OmpR; source: E. coli BL21 (DE3), from pET15b, purified
stoichiometry N [3]: 2 OmpR molecules per EnvZc dimer
